Data on one molecule can be found in PMC12087824 (2025).

This assay concerns the target human CD40 receptor (hCD40) (human, UniProt P25942 21-277). In words: BLI. (In general: BLI is a label-free optical method that tracks binding on a fibre tip over time.)

Sequence of human CD40 receptor (hCD40) (P25942 21-277): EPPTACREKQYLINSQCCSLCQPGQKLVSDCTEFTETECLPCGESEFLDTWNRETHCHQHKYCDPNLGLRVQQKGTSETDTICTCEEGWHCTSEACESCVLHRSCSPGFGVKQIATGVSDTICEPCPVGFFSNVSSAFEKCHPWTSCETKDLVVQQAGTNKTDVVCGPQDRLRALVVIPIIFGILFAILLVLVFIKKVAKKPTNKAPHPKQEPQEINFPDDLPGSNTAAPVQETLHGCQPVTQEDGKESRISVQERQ

B1: DARPin WT_(CD40) binding the human CD40 receptor (designed binder)
chain: GSDLGKKLLQAARAGQLDEVRELLKAGADVNAKDTWGFTPLHIAAESGHLEIVEVLLKAGADVNAKDVQGRTPLHIAAHSGHLEIVEVLLKAGADVNAKDFRGWTPLHLAAWSGHLEIVEILLKAGADVNAQDKSGKTPADLAARAGHQDIAEVLQKAA
A word on the Kd: it is the free concentration of one partner at which half of the binding sites on the other are occupied at equilibrium, for simple one-to-one binding. The low end stands for tighter binding, the high end for weaker binding. For B1, the Kd stood at 288 nM.
